Target: T1, BRIL-KOR crystallization construct (human kappa-opioid receptor, residues 1-53 replaced by BRIL, C-terminal … (Homo sapiens, I135L | S324C))
T1 chain: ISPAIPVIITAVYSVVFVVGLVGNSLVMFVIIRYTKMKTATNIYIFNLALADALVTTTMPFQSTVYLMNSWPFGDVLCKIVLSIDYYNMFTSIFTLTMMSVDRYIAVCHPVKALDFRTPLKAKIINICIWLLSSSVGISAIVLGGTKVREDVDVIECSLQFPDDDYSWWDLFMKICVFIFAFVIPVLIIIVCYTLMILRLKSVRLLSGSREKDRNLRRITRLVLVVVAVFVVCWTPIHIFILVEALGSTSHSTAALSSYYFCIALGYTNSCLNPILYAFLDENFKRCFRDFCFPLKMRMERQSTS
Test: cell-based or functional assay

B1: Nb39 (active-state stabilizing nanobody) (VHH)
VHH: QVQLVESGGGLVRPGGSLRLSCVDSERTSYPMGWFRRAPGKEREFVASITWSGIDPTYADSVADRFTTSRDVANNTLYLQMNSLKHEDTAVYYCAARAPVGQSSSPYDYDYWGQGTQVTVS
  increase of the binding affinity of nalfurafine in radioligand competition binding on KOR membranes in the presence of Nb39: 40 fold

Source: publication PMC10008561, “Molecular mechanism of biased signaling at the kappa opioid receptor” (Nature Communications, 2023)
